B1: Fab 5611 (Fab, V domains shown)
VH: QVQLQQSEAELVRPGSSVKISCKASGYAFSNYWMNWVKQRPGQGLEWIGQIYPGDGDTKYNGKFKGKATLTADKSSSSAYMQLSSLTSEDSAVYFCVITTVVGGDSDVWGAGTTVTVSS
VL: DLVLTQSPASLAVSLGQRATISCRASKSVSTSGYSYMHWYQQKPGQPPKLLIYLASNLESGVPARFSGSGSGTDFTLNIHPVEEEDAATYYCQHSRELPYTFGGGTKLEIKR
notes: Murine Fab from an Omniclonal library of immunised C57Bl6 mice
B2: E8 mouse IgG1 monoclonal antibody (antibody, V domains shown)
VH: B1 VH
VL: B1 VL
notes: domain: constant domain of mouse IgG1; also called E8 antibody; E8 mouse IgG1 mAb
B3: 4-28 (cys) ghrelin fragment (peptide)
peptide: FLSPEHQRVQQRKESKKPPAKLQPRC
B4: 9-28 ghrelin fragment (peptide)
peptide: HQRVQQRKESKKPPAKLQPR

The target in assay [1] is B3. The experiment in a line: competition ELISA on coated desacyl ghrelin, Fab at 10 nM. The procedure:
(§1) (450-655061) by adding 60 uL of a 0.4 μg/ml (in H₂O) solution to each well. The assay plate is placed in a dry 37° C. incubator overnight. The next day, the assay plate is washed (wash buffer: 0.1% Tween 20, Tris-buffered saline (TBS)), and blocked with casein/PBS (Pierce 37528).
(§2) “2-28 acyl ghrelin” and “3-28 acyl ghrelin” in FIG. 1 refer to acyl ghrelins (SEQ ID NO: 17) missing the first one or two amino acids at the N-terminal end of the molecule, respectively. In FIG. 2, “1-8 (cys) desacyl” refers to a desacyl ghrelin fragment consisting of amino acids 1-8 of SEQ ID NO: 17, with an additional cysteine residue at the C-terminus. “4-28 (cys)” refers to a ghrelin fragment consisting of amino acids 4-28, also with an additional cysteine residue at the C-terminus. “9-28” refers to a ghrelin fragment consisting of amino acids 9-28 of SEQ ID NO: 17. Dilutions of the ghrelin, ghrelin analogs, and Fab are made in casein/PBS. These mixtures are incubated in a separate plate for 1 hour at room temperature.
(§3) The blocking solution is removed from the assay plate and 50 uL of the ghrelin/Fab mixture are added to the assay plate in duplicate. This is allowed to sit for 30 minutes at room temperature. […] The reaction is stopped with 100 uL of 1 N HCl, and the absorbance of the wells is read at 490 nm (Molecular Device SpectraMax250).
A general note: In an ELISA, binding on a coated surface is turned into a signal by an enzyme label.

The target in the assay “9-28 ghrelin fragment” is B4. The description is as above. The procedure:
as §1, §2, §3

Assay [2] concerns the target T1, desacyl human ghrelin (human).
T1 construct: also called desacyl ghrelin; 1-28 desacyl ghrelin
The experiment in a line: SPR (BIAcore 2000), Fab captured by goat anti-mouse kappa, ghrelin in solution, 25 C. The procedure:
(§4) Except where noted, all reagents and materials are purchased from BIAcore® AB (Upsala, Sweden). All measurements are performed at 25° C. Samples containing rat or human desacyl ghrelin are dissolved in HBS-EP buffer (150 mM sodium chloride, 3 mM EDTA, 0.005% (w/v) surfactant P-20, and 10 mM HEPES, pH 7.4). A capture antibody, goat anti-mouse Kappa (Southern Biotechnology, Inc), is immobilized onto flow cells using amine-coupling chemistry. Flow cells (1-4) are activated for 7 minutes with a 1:1 mixture of 0.1 M N-hydroxysuccinimide and 0.1 M 3-(N,N-dimethylamino)propyl-N-ethylcarbodiimide at a flow rate of 10 μl/min. Goat anti-mouse Kappa (30 μg/mL in 10 mM sodium acetate, pH 4.5) is manually injected over all 4 flow cells at a flow rate of 10 μL/min. The surface density is monitored and additional goat anti-mouse Kappa is injected if needed to individual cells until all flow cells reach a surface density of 4500-5000 response units (RU). Surfaces are blocked with a 7 minute injection of 1 M ethanolamine-HCl, pH 8.5 (10 μL/min). […]
(§5) Collection of kinetic binding data is performed at maximum flow rate (100 μL/min) and a low surface density to minimize mass transport effects. […] Signal is monitored as flow cell 2 minus flow cell 1, flow cell 3 minus flow cell 1 and flow cell 4 minus flow cell 1. […]
On the technique in general: In SPR one partner is held on a chip, and binding of the other changes the refractive index at the surface.

The target of assay [3] is T1, desacyl human ghrelin. The experiment in a line: SPR (BIAcore 2000), antibody captured by goat anti-mouse kappa, ghrelin in solution, 25 C. As for the experimental part: as §4, §5
In the assay “Fab 5611” the target is B1. The experiment in a line: competition ELISA: peptide preincubated with 10 nM Fab 5611, mixture added to a plate coated with desacyl ghrelin, bound Fab detected with anti-mouse kappa-HRP, A490. The procedure:
as §1, §2, §3

This is an account of results in patent US20090060920A1 (Eli Lilly, published 2009).

One may read the Kd as the equilibrium constant for the complex coming apart. A low value points to a tighter complex. On to B1, for which the binding result (in assay [1]; with 9-28 ghrelin fragment) was “no binding (tested: at the concentrations tested)” each time. For the same molecule, in the assay with desacyl human ghrelin [2], the Kd is 0.138 nM.
B2 gave a Kd with desacyl human ghrelin [3] of 0.226 nM. This lies in the sub-nanomolar range.
As for B3, the binding result with Fab 5611 was “no binding (tested: 1000 nM)”.
As to B4, the binding result in the assay with Fab 5611 is recorded as “no binding (tested: 1000 nM)”.
